According to the supplement of paper PMC12764529:
± gives the half width of the 95% confidence interval.

assay: folding stability dG unfold (combined trypsin and chymotrypsin); higher = more stable
In short: (§1)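 How resistant each design was to proteolysis was captured as K50, inferred by Bayesian fitting of sequencing counts. Unfolding free energy was then derived relative to a sequence-predicted unfolded-state K50 and a shared folded-state K50, per protease or combined. Digestion used trypsin and chymotrypsin at 11 threefold-diluted concentrations plus a no-protease condition, on mini-proteins under 80 residues without cysteine in a PA-tagged cDNA display construct. Designs were kept only when AlphaFold2 dimer inter-PAE was above 15.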

Row | Sequence | folding stability dG unfold [kcal/mol]
1 | SAGMTSVLTLEEVSPEELRAKIDEALATLPEGTIFVLPSEELAEVVKELHPGVPVVVRDEATGRLTEVGSAG [r5_391_JUSTAS] | 1.5 ± 0.086
2 | SAGGMKITTKDGSTITVETEPGKVTITIKPPGDGSTTTLPFPAPSEEEGIEAAIKKIEEEGNVEEIELSAGG [r13_579_JUSTAS] | 0.491 ± 0.3
3 | SAGGSAGGSAGGGSVVTTETSVSPNGVVTTTTTTTFLDPDGNPLGTTTTTTAHAAPPTTSAGGSAGGSAGGS [r10_403_JUSTAS] | 2.12 ± 0.024
4 | SAGGSATLTLPEDVVKEVFTAKVGDKEYRPVVFRSPDDEWVLVLVLRRDPNGNTSAVAALLPKDAVSAGGSA [r15_986_TrMRF] | 1.64 ± 0.13
5 | SAGGKKTYKVRIEIKVTDPNGKKRTIEIELEVPESEEEAEKLAKELAEKLKEKGYKVEIVKIEVEPLSAGGS [r16_525_TrROS_Hall] | 4.03 ± 0.12
6 | SAGGSGMEKYTVTIDLKFYTPETGKTYTKTVTLTTTSIEEAIKAITEKLTPPDMKIEITSITVTPSSAGGSA [r2_320_JUSTAS] | 4.62 ± 0.13
7 | SAMTIVLTLDEIAELLGLEKGESVEELRERIRELIRRLEEEGYRVTSITIEEVDGELVITVEIEPPPPESAG [r14_158_TrROS_Hall] | 4.89 ± 0.21
8 | SAGGSAGGSASSSPVTVETKTLEVEFKDDEIIVKEKVTTKYPNGKTTVTVTTTTIKVDPNLDSAGGSAGGSA [r18_291_JUSTAS] | 1.34 ± 0.12
9 | SAGGSAGGMVIKLPLPNDLYAEIPVYSNSDGIVTARIVLYDPSTEEKVEKPFELPFEELLDLLSSAGGSAGG [r6_858_TrMRF] | 0.712 ± 0.081
10 | SSMSMKTITIDATFTSEEEAKKYAEEIKKKIPPENIKNISISSTPELVTGDGTYKGEKIKVTITIEIVKKSA [r9_605_JUSTAS] | 1.71 ± 0.26
11 | SAGGMLKIEVTVPAEYPEQAEEIAAEIRDLLEAGPYVKVLKVEIEPTEDTVRVTVVVEIEFDSPEELISAGG [r13_39_TrMRF] | 1.78 ± 0.21
12 | SASITIPVDELKDFAEHFPGFNVGVNPETGMFQIFFPENGWMINIDIEVDPDDPDTIEIDIEIYPMPPNSAG [r14_604_TrROS] | 2.57 ± 0.37
13 | SAGGSAGGSADKIEIRVKLKIPNTDEILTFPIWVDPENPEEVAKAIAAWLEKNGYEIESFEGSAGGSAGGSA [r18_3_TrMRF] | 3.98 ± 0.16
14 | SAGGSAGGSAMEILSKEIIPNNDLIIIDIKVKKKNKEYIYKLIIKGDKIIKISEIEIDDAPSAGGSAGGSAG [r3_48_TrMRF] | 2.15 ± 0.26
15 | SAGGSAGGSAGTAEEIAKALEEAGFKVEKLPDGTLKVTVRNPETEETVEITLTLEEIEKLSAGGSAGGSAGG [r11_994_TrROS_Hall] | 2.33 ± 0.1
16 | SAGGSMKPSKVTEVTHPDGTRFTVTEYPEVPLLTLTIERPETGTTTTVKTKSREEAEKVLAELVASSAGGSA [r2_70_JUSTAS] | 0.596 ± 0.11
17 | SAGGSAGGSAGGSSMAIKKVSEFLLRPENGELIKVTVYRKPGPETIVTVIGDKTYTFEPSAGGSAGGSAGGS [r4_114_JUSTAS] | 0.0399 ± 0.1
18 | SAGGSAGGSAKKPKKFKITKISTVKNKNGKTYYKLVIEDEKTKKKYVFVFPKNKEEILKALSAGGSAGGSAG [r3_57_TrROS_Hall] | 2.45 ± 0.15
19 | SAGGSAGGWITPDAAKEFADKWGFDDVNVEVLDVDPNNNYVRVKVTARNPKNGNERPIGEFWFPSAGGSAGG [r6_699_TrROS] | 1.2 ± 0.066
20 | SAGGSAGGSAGMVTIYADPDGSYTAHFPDGSSASYSSLEEVKANLKAKYPDVKDVVIEKTSAGGSAGGSAGG [r11_806_JUSTAS] | 3.11 ± 0.084
21 | SAGGMIKVEVEPLEDGVLRVRVYVPHPDGPPIEIEVVFPPEVGSLEEALEKAVEVVEEFLKKHNIPLSAGGS [r8_464_TrMRF] | 2.36 ± 0.1

assay: folding stability dG unfold from chymotrypsin proteolysis; higher = more stable
In short: as §1

Row | Sequence | folding stability dG unfold [kcal/mol]
22 | SAGGSAGGSAAPLYELEILSVDLDPDNPTVYVLARIPGTSNYVLITFPPNGDVYAYASPLPSAGGSAGGSAG [r3_294_TrMRF] | 2.37 ± 0.06
23 | SAGGSAGGSAGKKKYKIVSIEIERNKDGNSLTVKIKLENGKELTLTFPTEEDLKNLKIKASAGGSAGGSAGG [r11_711_TrROS_Hall] | 3.104 ± 0.028
24 | SKIKILIAMTEDEIKKLAEELKKKGYEIKIKVKKIEKKKVKVKNKDGKTYEKEVVLVEVEIEIVPKGVKPSA [r9_991_TrROS_Hall] | 3.98 ± 0.32
25 | SAGGSAGGSAEPPEPEVVAVTVEITEEDGELTITVTNEDTGEKYTFTLKNVEVKPGDTLLIRSAGGSAGGSA [r18_89_TrROS_Hall] | 1.77 ± 0.34
26 | SAGGSAGGSAGMETTVLEEVPPEELAKGQTRLEKLPDGTIIERTVAPEGEVVETKTIPPKSAGGSAGGSAGG [r17_2_JUSTAS] | 0.421 ± 0.12
27 | SAGGSAGGSAGAPNIVVVTLTRDALFYNPVEGKWEVKPVTLTRAFTSKEEADKWLEEIGLSAGGSAGGSAGG [r11_984_TrMRF] | 3.84 ± 0.042
28 | SAGGSAGGSMIVVPESVSPEEAEATARQVAQELGISPDTPLEVEIKEVKTGENSVYEIRVTLRSAGGSAGGS [r12_252_JUSTAS] | 0.19 ± 0.13
29 | SAGGSAGGSAGMLARITLSTPEKPVEYIVPESEVEEYIKKLNLPEDTEVTVTPVDPAALLSAGGSAGGSAGG [r17_395_JUSTAS] | 1.8 ± 0.032
30 | SAGGGSMPASITTEVTETTTPDATVTKSTVYYPDTGKWLEETTTTGPTTTITTTKFPDGSTTVTTAASAGGS [r16_657_JUSTAS] | -1.18 ± 0.28
31 | SAGGSAGGSAGMDIPLTFTAPNADGQPVKVRVEKIIPEKGYLLVRVEYPDDREETFLDPFSAGGSAGGSAGG [r11_742_TrMRF] | -0.167 ± 0.13
32 | SGTRTVTVTGAVLSRLPDGTLVTDPGEAPVTVPVPPPKPRIEVPPELREKLREAAEKLGLELTEEDIETASA [r9_487_TrMRF] | -0.896 ± 0.9
33 | SAGGSAGGSEEEKLKKLKEKLKPPKIKVKIEVKVEYDKETGKLKVEATVEINGKKYKLTIEFPSAGGSAGGS [r20_230_TrROS_Hall] | 4.19 ± 0.13
34 | SAGGSAGGSAGVEINIFMPSWEQAKHRAKSIARELRERGLPPNAEIKIKIHPIDPEDMGPSAGGSAGGSAGG [r17_180_TrROS] | -0.576 ± 0.15
35 | SMSVVVPPDEGLTVTLTTLPGGTIEIHVGDTVLTRDVAPGETLTVTVPPDRTGNTVTVVGPGGVVVTSSGSA [r9_143_JUSTAS] | 0.71 ± 0.024
36 | SAGMSITIESDTNAPPDLPDIGEEEKLALAEELKEKALADPRYPDEEVVIVRPFKTPGGARWTITVVVSAGG [r19_132_JUSTAS] | 1.29 ± 0.24
37 | SAGGMTLRIVLPEEEAEKLVEELKKIFPGAEIKVKKVEYNEETGEKLVVLEIKFKSKEEAEKAKKLLESAGG [r13_539_TrROS_Hall] | 3.8 ± 0.12
38 | SAGGSAMTVTYTPSTKTITITDPSNGKPVKVTVTEEKPVVPGKNVYELTVTVPDTGGEKKILITLPSAGGSA [r15_209_JUSTAS] | -0.192 ± 0.15
39 | SAGGSAGGSAMPTYDNPDSLSIEEVKEKVAKEAKEKYPGKSNITVPVKFSDGTEYTVTIKIESAGGSAGGSA [r18_449_JUSTAS] | -0.771 ± 0.21
40 | SAGGGSFINISKKEIAEAISKLIGKDYPLEDVKVSVTTLPENKTIINVEIKLPNTTETLYIPILFDVSAGGS [r16_42_TrMRF] | 1.7 ± 0.018
41 | SAGGSAGGSAGKPITADEVAERVARRLRELFGPDYDINVKVVKVLPGDYVLVDVEITGDLSAGGSAGGSAGG [r11_153_TrMRF] | 2.287 ± 0.021
42 | SEYSRIEFEDYTVLVVKKTLPNGKPLYLVRLYRKEDPKVDPVEVDSPEEAEEAVKELLKKHLPGEEVEKESA [r9_749_TrMRF] | 3.3 ± 0.033

Row | Sequence | folding stability dG unfold [kcal/mol]
43 | SAGMTSVLTLEEVSPEELRAKIDEALATLPEGTIFVLPSEELAEVVKELHPGVPVVVRDEATGRLTEVGSAG [r5_391_JUSTAS] | 1.67 ± 0.1
44 | SAGGMKITTKDGSTITVETEPGKVTITIKPPGDGSTTTLPFPAPSEEEGIEAAIKKIEEEGNVEEIELSAGG [r13_579_JUSTAS] | 0.591 ± 0.1
45 | SAGGSAGGSAGGGSVVTTETSVSPNGVVTTTTTTTFLDPDGNPLGTTTTTTAHAAPPTTSAGGSAGGSAGGS [r10_403_JUSTAS] | 1.8 ± 0.031
46 | SAGGSATLTLPEDVVKEVFTAKVGDKEYRPVVFRSPDDEWVLVLVLRRDPNGNTSAVAALLPKDAVSAGGSA [r15_986_TrMRF] | 1.8 ± 0.16
47 | SAGGKKTYKVRIEIKVTDPNGKKRTIEIELEVPESEEEAEKLAKELAEKLKEKGYKVEIVKIEVEPLSAGGS [r16_525_TrROS_Hall] | 4.08 ± 0.064
48 | SAGGSGMEKYTVTIDLKFYTPETGKTYTKTVTLTTTSIEEAIKAITEKLTPPDMKIEITSITVTPSSAGGSA [r2_320_JUSTAS] | 4.62 ± 0.11
49 | SAMTIVLTLDEIAELLGLEKGESVEELRERIRELIRRLEEEGYRVTSITIEEVDGELVITVEIEPPPPESAG [r14_158_TrROS_Hall] | 5.23 ± 0.21
50 | SAGGSAGGSASSSPVTVETKTLEVEFKDDEIIVKEKVTTKYPNGKTTVTVTTTTIKVDPNLDSAGGSAGGSA [r18_291_JUSTAS] | 1.55 ± 0.1
51 | SAGGSAGGMVIKLPLPNDLYAEIPVYSNSDGIVTARIVLYDPSTEEKVEKPFELPFEELLDLLSSAGGSAGG [r6_858_TrMRF] | 0.899 ± 0.054
52 | SSMSMKTITIDATFTSEEEAKKYAEEIKKKIPPENIKNISISSTPELVTGDGTYKGEKIKVTITIEIVKKSA [r9_605_JUSTAS] | 1.74 ± 0.2
53 | SAGGMLKIEVTVPAEYPEQAEEIAAEIRDLLEAGPYVKVLKVEIEPTEDTVRVTVVVEIEFDSPEELISAGG [r13_39_TrMRF] | 2.1 ± 0.06
54 | SASITIPVDELKDFAEHFPGFNVGVNPETGMFQIFFPENGWMINIDIEVDPDDPDTIEIDIEIYPMPPNSAG [r14_604_TrROS] | 2.96 ± 0.15
55 | SAGGSAGGSADKIEIRVKLKIPNTDEILTFPIWVDPENPEEVAKAIAAWLEKNGYEIESFEGSAGGSAGGSA [r18_3_TrMRF] | 4.14 ± 0.15
56 | SAGGSAGGSAMEILSKEIIPNNDLIIIDIKVKKKNKEYIYKLIIKGDKIIKISEIEIDDAPSAGGSAGGSAG [r3_48_TrMRF] | 2.5 ± 0.081
57 | SAGGSAGGSAGTAEEIAKALEEAGFKVEKLPDGTLKVTVRNPETEETVEITLTLEEIEKLSAGGSAGGSAGG [r11_994_TrROS_Hall] | 2.22 ± 0.051
58 | SAGGSMKPSKVTEVTHPDGTRFTVTEYPEVPLLTLTIERPETGTTTTVKTKSREEAEKVLAELVASSAGGSA [r2_70_JUSTAS] | 0.306 ± 0.16
59 | SAGGSAGGSAGGSSMAIKKVSEFLLRPENGELIKVTVYRKPGPETIVTVIGDKTYTFEPSAGGSAGGSAGGS [r4_114_JUSTAS] | 0.336 ± 0.11
60 | SAGGSAGGSAKKPKKFKITKISTVKNKNGKTYYKLVIEDEKTKKKYVFVFPKNKEEILKALSAGGSAGGSAG [r3_57_TrROS_Hall] | 2.53 ± 0.062
61 | SAGGSAGGWITPDAAKEFADKWGFDDVNVEVLDVDPNNNYVRVKVTARNPKNGNERPIGEFWFPSAGGSAGG [r6_699_TrROS] | 1.46 ± 0.045
62 | SAGGSAGGSAGMVTIYADPDGSYTAHFPDGSSASYSSLEEVKANLKAKYPDVKDVVIEKTSAGGSAGGSAGG [r11_806_JUSTAS] | 3.449 ± 0.034
63 | SAGGMIKVEVEPLEDGVLRVRVYVPHPDGPPIEIEVVFPPEVGSLEEALEKAVEVVEEFLKKHNIPLSAGGS [r8_464_TrMRF] | 2.22 ± 0.065
